Target: Hfq WT (Escherichia coli K-12 MG1655, UniProt P0A6X3 1-102)
Assay: EMSA; EMSA: 20 mM Tris-HCl pH 7.6, 0.5 M NaCl, 1 mM EDTA, 1% glycerol, 20 min at 25 C; native PAGE in 0.5x TBE at 4 C
Settings: protein: recombinant; tags: His tag removed with AcTEV protease; label: 3' fluorescein; single-stranded

GGGACAGUAUUUG (ssRNA, 3' fluorescein) [BR13]
binding result: binds

Reference: publication PMC11012335, “Hfq-Antisense RNA I Binding Regulates RNase E-Dependent RNA Stability and ColE1 Plasmid Copy Number”
